Test: label from the status in PepcDB records
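Also: failed if final PepcDB status was selected cloned or expressed and not failed if soluble or beyond.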

Sequence | protein production
MTLVRMTEKLLSPLHTRPWPERWLTRVLGAALASAAYLLCLPWDLNNRAPSPGAVEETTPVTGVGVVALAVILLALAAYFGHRDSLGWPVLLVAVPPAALLYVSLRTHPGPPDGFAGVWPLVWGFFTLLIGVGVLVAAAVAREFRADLVDEELSLAHRR | failed
MDNRSASLHSDIDTVLNNYDYDFAEVEIAVLGNGHINNTYKLTTPEVEFVLQQINHDVFPKTAELSSNAQKINLHLQRQKNIGNYPLSIPQQILSKTGETYSKVGTNYWRLMEFISNSYTLEEVESPEQAALVANAFAEFSCTLSDFPVEELAVIIEDFHDISFRMRQLNEAVENDLQDRLSSCQTLVNFCLDQQDFINHVIDISKKLPLHVTHNDTKINNLLFTEGDTPCAVIDLDTCMPGLLMHDFGDMVRTCCSNLAEDDTNIDAMIIKLDIFSALIQSYQNAFGTKMSALEKDSLIVGTKSVPFSLGTRFLTDYLNGDSYFQVSREKHNLDRAFNQIQLFILLCEAEPELIKLAMQALEHHHHHH | failed
MNTYKKIFYFSTILFFYSGFSYAQNINLLLRKGNTCYRKGQYKNAAPYYDQVLKTDPENIQALYKSGVCNLFRYSKEQALINFEKVLQKDSSYDKYLYYWLGRANQLNFNFDQADFFYTAFQQKTSKNKIQYKEADRYKYQLKCARNFVANPANYKIQNLGAAVNSSFSDHSPVVSYTDTLLFFTSRRVTNTEAKEEHDGEPFEDIFYSYRNSTGEWSKPELFHLNTSGHDATIQLFDNDTKIFIYSYLHDGDILLAHKNAGTWSTPVPVKEINSADFESDAFMTADGKTLYYATNHFKKNGDLDICFITKKDDNTWSKPQTLSSLINTDEDEDAPYISADGKTMYFSSRGHTSMGGYDIFKSELDSVTGQWQKPVNLGYPVNTPDEDLYFCLSAKTKRAFMSSYRTGGFGEKDIYEIIPVKNIQLLGSVMKGDTSTPFPNVTMQYIPMAGAMKGAQKTQVNTLADGTYTTELLSDNAYLVYISQGKDTLLKDTLVLPLNEFDHYVYKQLYILNIHDTAAVKDSVIHKVTDTIKTIAAAEIAKTVYFESNRADLNAEAKTELNQLGIYLDTHKEANVYISGHADALGSAAINNALSQKRAQAAAVYLKAKGISAARIKVESFGSEKPVETNATVEGRAKNRRVQIVVK | failed
REKLFLQPVKPTDSMRMEVSSPKLAIGVRGKREVSEADCYRHHILLKLLFAMMFGWTSDRFQKCYESGKIDASLSLEVEITSRFHFVMLTMDTKEPVALSHQFRKAIRNFTKDLDITEEHLDIIKREMFGEFFSSMNSLEFIATQYDAFENGEIIFDLPKILQEITLEDVLDAGHHLIDDGDIVDFTIFP | failed
MDELELRIRKAEKLVQDAKKEFEMGLYERCCSTAYYAMFHAAKAMLLGYGRDSKTHRGTIYLIWECREELGLSDDDCSKLSRAFDLREESDYGIYKEVSKDLAIKILKDAEIFVQKAKNAVNKNR | not failed
MYIHLGDDFVVSTREIVAIFDYKAKTSPIVEEFLSKQKQRIVSSNSTPKSIVVTLQSIYFSPLASGTLKKRAQSKPEIDSLEHHHHHH | failed
MFLVTGATGDIGRRVIRLLREHNHSVRGFARLTSRYGELEHRGANIFIGDLRREQDIEKACQGVQYIISAHGSDNDALTLDYRANIALIDQAKANGVQHFVFISVLGAERGYEDAPVFKAKRAVENYLAASGLNYTILRPAGLASNLLPLAERFRETGLYLLIGDPKNRTSIVSTDDLARIVVDSVTVPEARNQIFSVGGPEILLREDIPQIFSHIFKKEPIVVNSPLLVIDGLRGVLGLINPEAQQALGTFRTLLSNEFFCRKDEIAKLEQTFNFPLETLESFLRRYLAVLEHHHHHH | failed
MPIKARETDMATRFKGLSAFPITPADEAGRVDIEAFSALIARLDAAEVDSVGILGSTGIYMYLTREERRRAIEAAATILRGRRTLMAGIGALRTDEAVALAKDAEAAGADALLLAPVSYTPLTQEEAYHHFAAVAGATALPLAIYNNPTTTRFTFSDELLVRLAYIPNIRAIKMPLPADADYAGELARLRPKLSDDFAIGYSGDWGCTDATLAGGDTWYSVVAGLLPVPALQLMRAAQAGNAEEAKRLDATFQPLWALFKEFGSIRVIYAAANILSLTVSEPPRPILPLTSAERQRVEEALEALSALETAP | not failed
SEDPVFTFGLIADVQYADIEDGENYLRTRRRYYRGSADLLRDAVLQWRRERVQCVVQLGDIIDGHNRRRDASDRALDTVMAELDACSVDVHHVWGNHEFYNFSRPSLLSSRLNSAQRTGTDTGSDLIGDDIYAYEFSPAPNFRFVLLDAYDLSVIGREEESEKHTHSWRILTQHNHNLQDLNLPPVSVGLEQRFVKFNGGFSEQQLQWLDAVLTLSDHKQERVLIFSHLPVHPCAADPICLAWNHEAVLSVLRSHQSVLCFIAGHDHDGGRCTDSSGAQHITLEGVIETPPHSHAFATAYLYEDRMVMKGRGRVEDLTITYS | not failed
MPSEKEILDALSKVYSEQVIQADDYFRQAIFELASQLEKEGMSSLLATKIDSLINQYILTHQFDAPKSIFDLSRLVKTKASHYKGTAISAIMLGSFLSGGPK | not failed
MSEPSLDKSSFNQPSWRNALAGLQMLFVAFGALVLMPLITGLDPSVALFTAGIGTILFQFITKQQVPLFLASSFVFIAPIAYSVQTWGIAVAMGSLFVTGLVYVLIASVVAVRGAGFLHKLMPPVVTGPIIMVIGLSLAPIAVNMAMGKAGDGSAVLFPYADSLIVSMSALITTLLVATLGKGIFRLIPIMAGVFVGYIMASVMGMVSTEAIANSEWFAIPNFVTPEFNLTAILFMLPVAIAPAIEHVGDIIAIGSVTGKDYTKSPGLHRTLLGDGLATSLASLFGGPPNTTYSEVTGAVMLTKMFNPKIMLWAAAFAIGLAFVAKFGLALQTIPAPVMGGILILLFGSIAGVGMNILIKAQVDLAEQRNLVIVSTTLVFGIGGMAIGNDDFSLTGISLCGLVAIALNAIIPQTQLEEESLVQEETIVEDLVEHAKGKEIN | failed
MAHEGEQFIKDIQREYVDFLDDEEDQGIYAGHVKDMIAEKSKRLIVNVNDLKRKNPQRALGLLSNAADEQLAFGRALKEYASTVDPGYAKMHEDLFVGFEGCFGNRHVTPRSLTSIYLGNMVCVEGIVTKVSLIRPKVVRSVHYCPNTRKVMERKYTDLTSFEAVPSGAAYPTKDEDGNLLETEYGLSVYKDHQTLTIQEMPEKAPAGQLPRSVDIVCDDDLVDRCKPGDRVQIVGSYRCLPGKRGGYTSGTFRTVLLANNISLLSKESNLDISREDIMLCKKLAKNNDIFELLSKSLAPSIHGHAYVKQAILCLLLGGVEKILPNGTRLRGDINVLLIGDPSVAKSQLLRYVLNTAPRAIPTTGRGSSGVGLTAAVTTDQETGERRLEAGAMVLADRGVVCIDEFDKMSDIDRTAIHEVMEQGRVTISKAGIHASLNARCSVLAAANPVYGRYDQYKTPMENIGLQDSLLSRFDLLFVMLDVIDSDVDQMISDHVVRMHRYRNPKEADGEPLSMGSSYADSLSFVSSSEEKKDTEVYEKYDALLHGKSRQRHEKILSVEFMRKYIHIAKCMKPKLGEQACEAIANEYSRLRSQEAVETDVARTQPITARTLETLIRLSTAHARARMSKSVTIDDAHAAIELVQFAYFKKVLDKDRPSKRRRNSGSDAEDDNGEASSQRSPSRRSKRTRTATVGADSDEEDIEPPQPDAGDLTRRETRRSLPARSVAMLMASPSSEEQSVATSTTEPAIISDARLGEFKNNLQRLFREAREQSLALARITTAINVGSQEPFTAGEIEAAVHRMTEDNQIMVADDIVFLI | failed
MAIRRCYIAQNPKSSCRFNCVRERFEDLRGVPCLVYEGETRDWINAALFLEDENESEDRKRFVLHTSHSALLYMEYDLTSNADCTVLELARCTDSSILYYTKLHGSSFNKLAIISGNAFGELLVWQTQFPTESDPKSVMKTYPLLLRIEAHNGVIHSIEFDLQSQLLVTTSDDRSVKFWNIQKSGDWTTAEIKPMFSCYGHSSRVMCVVILKIDDRTFVASGGEDSYVCIWSSSGELILKRRQQFGAPIWRLGFSQDAEILYSTSSTGNLVGQNLKEVLNRPKIESTILSSLGDANEFVRNLKFVNNEIIVGLSSLNRLYYTRISPDSSHENKWLMVNDFPSYKRTVLEVFDDIIATCGHRRITLHRDRYLVSDNLGYCLLLQTHQLHIESHIALFNNREPWITAALLISEQYLLLGNREGHVMLYCRSSASDDFQLKDSIRYLHGKMGSNFFKLLSLNADNAHVMSGGHEAFLKYLSVRFSDSTLRVSQREGIPLAWVEASPSDDLILGFNDNHIVAWSRRNDILLQLACGGGHRCWDFRLSDGDSQLSIAYVKQKRVYFYRNSLYNAVDNRLKDIEPNNWHVRNCNTLRLITPRNQSDPFILSAGDDNIIKVTQVTNDSLSQRAEMHSHISTVRSLQAIPYKSNGGDSSTWLVFSVGGRSQLCISQLSIDASNKCWISEISSHTLHNVAASKTSTIEARLMAIDVVQHSDGDLFSIYVAGGDGNISHYIWELETPNQLDLKHFVDIQRCPLGIQWIASKGMLLVSTTNGEVYGFDRTLETTYFQLQLHVTGINTIDIYVDRHLLHILSGGDDESIKYTVLNLNNNNVEQKIEYLGLHNAQVNALAIHCPTKSVAASELFAYTCSIDRQIYRIDLSTHKYKRVGYTCIADVKGMLLDEHQRMYFYGCGLQTMSISNIL | failed
MNQSIIFTEQLTWDVQLSAIHFTAQQQGMVIDCYIGQKVLEHLAAEKINNSEQALSLFEQFRFDIEEQAEKLIEQEAFDVQGHIQVERVD | not failed
MGQTALARGSSSTPTSQALYSDFSPPEGLEELLSAPPPDLVAQRHHGWNPKDCSENIDVKEGGLCFERRPVAQSTDGVRGKRGYSRGLHAWEISWPLEQRGTHAVVGVATALAPLQADHYAALLGSNSESWGWDIGRGKLYHQSKGLEAPQYPAGPQGEQLVVPERLLVVLDMEEGTLGYSIGGTYLGPAFRGLKGRTLYPSVSAVWGQCQVRIRYMGERRVEEPQSLLHLSRLCVRHALGDTRLGQISTLPLPPAMKRYLLYK | failed
SDQTRYSRLANITKIINTKLELREVLQRVTMAISEEIVRCDAVGIYLPEEDGTFRGFAGKPETINGVTLDTQVIDPGIDLLAKEVIETKKTIYIPDTSKDYRPDPRPVDAFKIKSLLALPISFGQELFGLVFLFDYGVPMNLTDSEIQSVEAYVNMAAVAIQNAKNLTQKENLIAEKQLLLNVTRDLSVCSS | failed
MLEQGTISIHTENIFPIIKKSLYSDHQIFLRELVSNAVDAIQKLKMVSRAGEYAGVVDEPEIQLAIDKDKKTLSITDNGIGMTAEEVKKYINQVAFSSAEEFIHKYQGKSDQPIIGHFGLGFYSSFMVAQKVEIDTLSYQEGAQAVHWSCDGSPEFTLEESSRTTIGTTITLTLLPDEEEYLESARVKNLVKTYCDFMPVPIKLDGEVLNRQKAPWRESPSNLTKEDYLEFYRYLYPFQEEPLLWVHLNTDYPFIINGILYFPKMRPDVDVTKGQIKLFCNQVFVSDNCEEIIPQFLVPMRGVIDSTDIPLNVSRSALQGDRTVRKIGDYIAKKVGDRLKELYRDDREQYISAWKDLSTFVKFGVLNDEKFKKQVEDIIIFRSTVKWEQPAETPAVEVQSQEGDVWQDITPSPDSPTPGLPYTTLKEYLERNKERHENRVFYSTDEATQATYIELHKNQGLEVLFLDSFIDTHFINFLEQEYQDVKFTRVDSDLDNTLLEQDKAGEIVDPTTNKTKSEIIKELFEKSLNKPKVNIRTEALKSDDPQGTPPAIVLLPEFLRRMREMTAMMQQQNADFPEDHILLVNTAHPLIQNLVNLNQGAIIQGDGESTTNPLVNLICQHVYDLALMSQKGFDAEGMKSFVERSNDVLTKLTQQAKN | failed
MGHHHHHHSHMSYARVRAVVMTRDDSSGGWLPLGGSGLSSVTVFKVPHQEENGCADFFIRGERLRDKMVVLECMLKKDLIYNKVTPTFHHWKIDDKKFGLTFQSPADARAFDRGIRRAIEDISQGCPESK | not failed
MFPYFESVATASTEFHAIEPDPHMRRQAAEQANTQATPIHIESSPAEALPYYEDTFDVVITSMVFCTIPDIESAMSEITRVLKPGGELRFFEHVIDDGWRARLQSALAPLWKRLAGGCHLTRQTGTRLVADQSFDVVEIERLNLGITPIRPFVRGRLRKRSVSSTRLEHHHHHH | failed

From a protein production outcome set (Wang et al. 2014)
